# Experimental data as given in patent US6713294B1, “DNA glycosylases and their use” (priority 1996, dated 2004).
# B1: Ser169Ala: human UDG (UNGΔ84) mutant with Ser169 replaced by Ala (protein)
# chain: MGVFCLGPWGLGRKLRTPGKGPLQLLSRLCGDHLQAIPAKKAPAGQEEPGTPPSSPLSAEQLDRIQRNKAAALLRLAARNVPVGFGESWKKHLSGEFGKPYFIKLMGFVAEERKHYTVYPPPHQVFTWTQMCDIKDVKVVILGQDPYHGPNQAHGLCFSVQRPVPPPPALENIYKELSTDIEDFVHPGHGDLSGWAKQGVLLLNAVLTVRAHQANSHKERGWEQFTDAVVSWLNQNSNGLVFLLWGSYAQKKGSAIDRKRHHVLQTAHPSPLSVYRGFFGCRHFSKTNELLQKSGKKPIDWKEL
# B2: Gln144Leu: human UDG (UNGΔ84) mutant with Gln144 replaced by Leu (protein)
# chain: MGVFCLGPWGLGRKLRTPGKGPLQLLSRLCGDHLQAIPAKKAPAGQEEPGTPPSSPLSAEQLDRIQRNKAAALLRLAARNVPVGFGESWKKHLSGEFGKPYFIKLMGFVAEERKHYTVYPPPHQVFTWTQMCDIKDVKVVILGLDPYHGPNQAHGLCFSVQRPVPPPPSLENIYKELSTDIEDFVHPGHGDLSGWAKQGVLLLNAVLTVRAHQANSHKERGWEQFTDAVVSWLNQNSNGLVFLLWGSYAQKKGSAIDRKRHHVLQTAHPSPLSVYRGFFGCRHFSKTNELLQKSGKKPIDWKEL
# B3: Asp145Glu: human UDG (UNGΔ84) mutant with Asp145 replaced by Glu (protein)
# chain: MGVFCLGPWGLGRKLRTPGKGPLQLLSRLCGDHLQAIPAKKAPAGQEEPGTPPSSPLSAEQLDRIQRNKAAALLRLAARNVPVGFGESWKKHLSGEFGKPYFIKLMGFVAEERKHYTVYPPPHQVFTWTQMCDIKDVKVVILGQEPYHGPNQAHGLCFSVQRPVPPPPSLENIYKELSTDIEDFVHPGHGDLSGWAKQGVLLLNAVLTVRAHQANSHKERGWEQFTDAVVSWLNQNSNGLVFLLWGSYAQKKGSAIDRKRHHVLQTAHPSPLSVYRGFFGCRHFSKTNELLQKSGKKPIDWKEL
# B4: Asp145Asn: human UDG (UNGΔ84) mutant with Asp145 replaced by Asn (protein)
# chain: MGVFCLGPWGLGRKLRTPGKGPLQLLSRLCGDHLQAIPAKKAPAGQEEPGTPPSSPLSAEQLDRIQRNKAAALLRLAARNVPVGFGESWKKHLSGEFGKPYFIKLMGFVAEERKHYTVYPPPHQVFTWTQMCDIKDVKVVILGQNPYHGPNQAHGLCFSVQRPVPPPPSLENIYKELSTDIEDFVHPGHGDLSGWAKQGVLLLNAVLTVRAHQANSHKERGWEQFTDAVVSWLNQNSNGLVFLLWGSYAQKKGSAIDRKRHHVLQTAHPSPLSVYRGFFGCRHFSKTNELLQKSGKKPIDWKEL
# B5: His268Leu: human UDG (UNGΔ84) mutant with His268 replaced by Leu (protein)
# chain: MGVFCLGPWGLGRKLRTPGKGPLQLLSRLCGDHLQAIPAKKAPAGQEEPGTPPSSPLSAEQLDRIQRNKAAALLRLAARNVPVGFGESWKKHLSGEFGKPYFIKLMGFVAEERKHYTVYPPPHQVFTWTQMCDIKDVKVVILGQDPYHGPNQAHGLCFSVQRPVPPPPSLENIYKELSTDIEDFVHPGHGDLSGWAKQGVLLLNAVLTVRAHQANSHKERGWEQFTDAVVSWLNQNSNGLVFLLWGSYAQKKGSAIDRKRHHVLQTALPSPLSVYRGFFGCRHFSKTNELLQKSGKKPIDWKEL
# Assays:
# Type in all cases: biochemical
# [1] = tested on: [^3H]thymine-labelled DNA; test: Release of [3H]thymine from ds or ss labelled DNA; settings: 10 μM, 10 min, 0 = below detection limit; for T-ds, pmol excised per min per mg protein: double-stranded thymine DNA; for T-ss, pmol excised per min per mg protein: single-stranded thymine DNA
# Procedure: (§1) To test enzymatic substrate specificities, 250 ng purified human “wild type” UDG (UNGΔ84), UNGΔ84Tyr147Ala or UNGΔ84Asn204Asp, were mixed with 200 ng ds- or ss-[^3H]cytosine-labelled DNA (150 mCi/mmol), or ds- or ss-[^3H]thymine-labelled DNA (100 mCi/mmol) in 10 mM NaCl, 20 mM Tris-HCl (pH 7.5), 1 mM EDTA, 1 mM dithiothreitol and 0.5 mg/ml bovine serum albumin (final concentrations) in 20 μl separate reactions. The final concentrations of the [^3H]cytosine-DNA (C) and [^3H]thymine-DNA (T) substrates were 6.5 μM and 10 μM, respectively. Release of radioactivity as a function of time was measured at 37° C. These conditions are later referred to as standard conditions. Substrate synthesis and processing of samples for scintillation counting were as described in Krokan and Wittwer (1981) Nucl. Acids Res., 9: 2599-2613. Single-stranded substrate was generated by boiling double-stranded substrate for 10 min, followed by rapid cooling on ice.
# (§2) For measuring release of uracil from double-stranded (U-ds) or single-stranded (U-ss) DNA the various mutant enzymes (prepared as described in Example 1 and by analogous site-directed mutagenesis methods and identical expression and purification methods) were incubated with 200 ng ds- or ss-[^3H]dUMP-labelled DNA (500 mCi/mmol, 2 μM final concentration) in 20 μl separate reactions for 10 min under standard conditions as described in Example 1. For measuring release of [^3H]cytosine or [^3H]thymine, assays were performed as described in Example 1 using an incubation time of 10 min. Uracil inhibition was analysed by adding 5 mM uracil (final concentration) to a standard U-ds assay. 0 activity indicates activity below detection limit (10 pmol per mg protein per min) with 100 ng enzyme and 200 ng DNA substrate at standard conditions.
# [^3H]dUMP-labelled DNA [2] = Uracil inhibition in standard U-ds assay; settings: 5 mM uracil added to standard U-ds assay
# Procedure: as §2
# [^3H]dUMP-labelled DNA [3] = Release of uracil from ds or ss [3H]dUMP-labelled DNA; settings: 2 μM, 10 min, 37° C.; for U-ds, pmol excised per min per mg protein: double-stranded uracil DNA, 0 = below detection limit (10 pmol per mg protein per min); for U-ss, pmol excised per min per mg protein: single-stranded uracil DNA, 0 = below detection limit
# Procedure: as §1, §2
# [4] = tested on: [^3H]cytosine-labelled DNA; test: Release of [3H]cytosine from ds or ss labelled DNA; settings: 6.5 μM, 10 min, 0 = below detection limit; for C-ds, pmol excised per min per mg protein: double-stranded cytosine DNA; for C-ss, pmol excised per min per mg protein: single-stranded cytosine DNA
# Procedure: as §1, §2
Molecule,"T-ds, pmol excised per min per mg protein [1]","T-ss, pmol excised per min per mg protein [1]",Inhibition 5 mM Uracil ([^3H]dUMP-labelled DNA [2]),"U-ds, pmol excised per min per mg protein ([^3H]dUMP-labelled DNA [3])","U-ss, pmol excised per min per mg protein ([^3H]dUMP-labelled DNA [3])","C-ds, pmol excised per min per mg protein [4]","C-ss, pmol excised per min per mg protein [4]"
B1,0 pmol excised per min per mg protein,0 pmol excised per min per mg protein,80%,3.1 × 10^6 pmol excised per min per mg protein,5.6 × 10^6 pmol excised per min per mg protein,0 pmol excised per min per mg protein,0 pmol excised per min per mg protein
B2,0 pmol excised per min per mg protein,0 pmol excised per min per mg protein,25%,3.4 × 10^4 pmol excised per min per mg protein,4.8 × 10^4 pmol excised per min per mg protein,0 pmol excised per min per mg protein,0 pmol excised per min per mg protein
B3,0 pmol excised per min per mg protein,0 pmol excised per min per mg protein,80%,5.5 × 10^4 pmol excised per min per mg protein,8.5 × 10^4 pmol excised per min per mg protein,0 pmol excised per min per mg protein,0 pmol excised per min per mg protein
B4,0 pmol excised per min per mg protein,0 pmol excised per min per mg protein,80%,1.4 × 10^4 pmol excised per min per mg protein,1.1 × 10^4 pmol excised per min per mg protein,0 pmol excised per min per mg protein,0 pmol excised per min per mg protein
B5,0 pmol excised per min per mg protein,0 pmol excised per min per mg protein,75%,1.3 × 10^5 pmol excised per min per mg protein,2.6 × 10^5 pmol excised per min per mg protein,0 pmol excised per min per mg protein,0 pmol excised per min per mg protein
